B1: Plasma alpha-L-fucosidase (Homo sapiens), Q9BTY2 (parent)
chain: MRPQELPRLAFPLLLLLLLLLPPPPCPAHSATRFDPTWESLDARQLPAWFDQAKFGIFIHWGVFSVPSFGSEWFWWYWQKEKIPKYVEFMKDNYPPSFKYEDFGPLFTAKFFNANQWADIFQASGAKYIVLTSKHHEGFTLWGSEYSWNWNAIDEGPKRDIVKELEVAIRNRTDLRFGLYYSLFEWFHPLFLEDESSSFHKRQFPVSKTLPELYELVNNYQPEVLWSDGDGGAPDQYWNSTGFLAWLYNESPVRGTVVTNDRWGAGSICKHGGFYTCSDRYNPGHLLPHKWENCMTIDKLSWGYRREAGISDYLTIEELVKQLVETVSCGGNLLMNIGPTLDGTISVVFEERLRQMGSWLKVNGEAIYETHTWRSQNDTVTPDVWYTSKPKEKLVYAIFLKWPTSGQLFLGHPKAILGATEVKLLGHGQPLNWISLEQNGIMVELPQLTIHQMPCKWGWALALTNVI
B2: Fibronectin type III and SPRY domain-containing protein 2 (Homo sapiens), A1L4K1 (parent)
chain: MEEESGEELGLDRSTPKDFHFYHMDLYDSEDRLHLFPEENTRMRKVVQAEMANESRGAGDGKAQRDLQEEVDELVHLYGLEDDHELGDEFVDENIPRTGVSEYPPYMMKRRDPAREQRDWRLSGEAAEAEDLGFGGWGSAGQCQDLREAYRYTHGRASEEYECYVIPEEEDEEEAADVFCVTCKTPIRAFQKVFDEHKEHEVIPLNEALESAKDEIHKNMYKLEKQIIEMENFANHLEEVFITVEENFGKQEQNFESHYNEILETLAQKYEEKIQALGEKKKEKLEALYGQLVSCGENLDTCKELMETIEEMCHEEKVDFIKDAVAMADRLGKFLKTKTDVEISAQPEFEDQTLDFSDVEQLMGSINTIPAPSAPVINPQVPNSATGSSVRVCWSLYSDDTVESYQLSYRPVQDSSPGTDQAEFTVTVKETYCSVTNLVPNTQYEFWVTAHNRAGPSPSSERAVYMTAPSPPIIKTKEIRSCEEAVLICWESGNLNPVDSYTVELTQAESPEASGVTESVVGIPTCESVVQLQPGRSYIIYVRALNMGGPSVRSEPATVHTIGSYFRLNKDTCHPWLTISEDGLTAVRSERRTPARELSPSDTHFTRCVAVMGNLIPVRGHHYWEVEVDEHLDYRVGVAFADVRKQEDLGANCLSWCMRHTFASSRHKYEFLHNRTTPDIRITVPPKKIGILLDYEHSKLSFFNVDLSQHLYTFSCQLHEFVHPCFSLEKPGCLKVHNGISMPKHVTFY
partner: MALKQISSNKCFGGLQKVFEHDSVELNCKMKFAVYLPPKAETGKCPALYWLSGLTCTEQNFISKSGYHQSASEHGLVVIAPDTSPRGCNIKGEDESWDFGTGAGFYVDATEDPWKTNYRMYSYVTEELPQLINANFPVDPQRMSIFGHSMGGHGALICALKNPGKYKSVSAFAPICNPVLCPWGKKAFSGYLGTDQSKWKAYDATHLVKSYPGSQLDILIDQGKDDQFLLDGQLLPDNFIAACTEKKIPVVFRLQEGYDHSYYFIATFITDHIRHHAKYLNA
B3: Dystrobrevin beta (Homo sapiens), O60941 (parent)
chain: MIEESGNKRKTMAEKRQLFIEMRAQNFDVIRLSTYRTACKLRFVQKRCNLHLVDIWNMIEAFRDNGLNTLDHTTEISVSRLETVISSIYYQLNKRLPSTHQISVEQSISLLLNFMIAAYDSEGRGKLTVFSVKAMLATMCGGKMLDKLRYVFSQMSDSNGLMIFSKFDQFLKEVLKLPTAVFEGPSFGYTEHSVRTCFPQQRKIMLNMFLDTMMADPPPQCLVWLPLMHRLAHVENVFHPVECSYCRCESMMGFRYRCQQCHNYQLCQNCFWRGHAGGPHSNQHQMKEHSSWKSPAKKLSHAISKSLGCVPTREPPHPVFPEQPEKPLDLAHIVPPRPLTNMNDTMVSHMSSGVPTPTKRLQYSQDIPSHLADEHALIASYVARLQHCARVLDSPSRLDEEHRLIARYAARLAAEAGNVTRPPTDLSFNFDANKQQRQLIAELENKNREILQEIQRLRLEHEQASQPTPEKAQQNPTLLAELRLLRQRKDELEQRMSALQESRRELMVQLEELMKLLKEEEQKQAAQATGSPHTSPTHGGGRPMPMPVRSTSAGSTPTHCPQDSLSGVGGDVQEAFAQGTRRNLRNDLLVAADSITNTMSSLVKELHSAEEGAEEEEEKMQNGKDRG
partner: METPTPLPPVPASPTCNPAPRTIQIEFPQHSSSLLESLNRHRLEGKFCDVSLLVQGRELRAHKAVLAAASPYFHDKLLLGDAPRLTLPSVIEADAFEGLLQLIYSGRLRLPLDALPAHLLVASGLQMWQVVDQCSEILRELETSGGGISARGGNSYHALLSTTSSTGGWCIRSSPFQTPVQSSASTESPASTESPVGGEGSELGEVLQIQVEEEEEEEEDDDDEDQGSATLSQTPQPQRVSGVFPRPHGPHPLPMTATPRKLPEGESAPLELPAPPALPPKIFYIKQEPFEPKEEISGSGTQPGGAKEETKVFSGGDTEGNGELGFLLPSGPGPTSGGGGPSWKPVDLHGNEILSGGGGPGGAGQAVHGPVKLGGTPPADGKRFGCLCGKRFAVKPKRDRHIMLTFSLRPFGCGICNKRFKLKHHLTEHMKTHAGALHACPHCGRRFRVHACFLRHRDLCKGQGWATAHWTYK
B4: Enhancer of mRNA-decapping protein 3 (Homo sapiens), Q96F86 (parent)
chain: MATDWLGSIVSINCGDSLGVYQGRVSAVDQVSQTISLTRPFHNGVKCLVPEVTFRAGDITELKILEIPGPGDNQHFGDLHQTELGPSGAGCQVGINQNGTGKFVKKPASSSSAPQNIPKRTDVKSQDVAVSPQQQQCSKSYVDRHMESLSQSKSFRRRHNSWSSSSRHPNQATPKKSGLKNGQMKNKDDECFGDDIEEIPDTDFDFEGNLALFDKAAVFEEIDTYERRSGTRSRGIPNERPTRYRHDENILESEPIVYRRIIVPHNVSKEFCTDSGLVVPSISYELHKKLLSVAEKHGLTLERRLEMTGVCASQMALTLLGGPNRLNPKNVHQRPTVALLCGPHVKGAQGISCGRHLANHDVQVILFLPNFVKMLESITNELSLFSKTQGQQVSSLKDLPTSPVDLVINCLDCPENVFLRDQPWYKAAVAWANQNRAPVLSIDPPVHEVEQGIDAKWSLALGLPLPLGEHAGRIYLCDIGIPQQVFQEVGINYHSPFGCKFVIPLHSA
B5: Protein BANP (Homo sapiens), Q8N9N5 (parent)
chain: MMSEHDLADVVQIAVEDLSPDHPVVLENHVVTDEDEPALKRQRLEINCQDPSIKTICLRLDSIEAKLQALEATCKSLEEKLDLVTNKQHSPIQVPMVAGSPLGATQTCNKVRCVVPQTTVILNNDRQNAIVAKMEDPLSNRAPDSLENVISNAVPGRRQNTIVVKVPGQEDSHHEDGESGSEASDSVSSCGQAGSQSIGSNVTLITLNSEEDYPNGTWLGDENNPEMRVRCAIIPSDMLHISTNCRTAEKMALTLLDYLFHREVQAVSNLSGQGKHGKKQLDPLTIYGIRCHLFYKFGITESDWYRIKQSIDSKCRTAWRRKQRGQSLAVKSFSRRTPNSSSYCPSEPMMSTPPPASELPQPQPQPQALHYALANAQQVQIHQIGEDGQVQVGHLHIAQVPQGEQVQITQDSEGNLQIHHVGQDGQLLEATRIPCLLAPSVFKASSGQVLQGAQLIAVASSDPAAAGVDGSPLQGSDIQVQYVQLAPVSDHTAGAQTAEALQPTLQPEMQLEHGAIQIQ
partner: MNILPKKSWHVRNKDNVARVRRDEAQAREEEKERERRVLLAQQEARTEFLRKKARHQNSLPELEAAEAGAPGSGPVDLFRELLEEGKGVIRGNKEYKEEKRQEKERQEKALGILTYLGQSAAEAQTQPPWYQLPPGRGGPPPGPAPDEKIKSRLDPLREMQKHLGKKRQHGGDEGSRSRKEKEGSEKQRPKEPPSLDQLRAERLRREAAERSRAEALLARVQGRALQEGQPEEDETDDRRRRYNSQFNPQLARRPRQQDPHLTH

Variants of: B1
Conditions: with meox2_human MEOX2, P50222
Sequence of meox2_human MEOX2, P50222 (P50222 whole entry): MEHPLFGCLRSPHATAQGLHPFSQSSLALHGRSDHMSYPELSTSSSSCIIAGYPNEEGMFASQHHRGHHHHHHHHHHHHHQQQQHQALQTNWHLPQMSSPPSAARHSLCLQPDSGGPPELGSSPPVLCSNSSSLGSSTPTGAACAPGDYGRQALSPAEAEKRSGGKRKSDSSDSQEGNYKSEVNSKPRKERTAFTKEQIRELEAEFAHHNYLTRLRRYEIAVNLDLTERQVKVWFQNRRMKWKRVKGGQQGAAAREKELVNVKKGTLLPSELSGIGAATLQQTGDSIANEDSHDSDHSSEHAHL

**Q.** With A233E as the variant, how does the “effect of a mutation on the interaction” value read?
**A.** with no effect

Variants of: B2
Conditions: with estd_human ESD

**Q.** Which “effect of a mutation on the interaction” value does the source give for E720K here?
**A.** with no effect

**Q.** Which “effect of a mutation on the interaction” value does the source give for K333T here?
**A.** with no effect

Variants of: B3
Conditions: with zbtb9_human ZBTB9, Q96C00

**Q.** How did the “effect of a mutation on the interaction” value turn out when R80H was run?
**A.** with no effect

Variants of: B4
Conditions: with ddx6_human DDX6, P26196
Sequence of ddx6_human DDX6, P26196 (P26196 whole entry): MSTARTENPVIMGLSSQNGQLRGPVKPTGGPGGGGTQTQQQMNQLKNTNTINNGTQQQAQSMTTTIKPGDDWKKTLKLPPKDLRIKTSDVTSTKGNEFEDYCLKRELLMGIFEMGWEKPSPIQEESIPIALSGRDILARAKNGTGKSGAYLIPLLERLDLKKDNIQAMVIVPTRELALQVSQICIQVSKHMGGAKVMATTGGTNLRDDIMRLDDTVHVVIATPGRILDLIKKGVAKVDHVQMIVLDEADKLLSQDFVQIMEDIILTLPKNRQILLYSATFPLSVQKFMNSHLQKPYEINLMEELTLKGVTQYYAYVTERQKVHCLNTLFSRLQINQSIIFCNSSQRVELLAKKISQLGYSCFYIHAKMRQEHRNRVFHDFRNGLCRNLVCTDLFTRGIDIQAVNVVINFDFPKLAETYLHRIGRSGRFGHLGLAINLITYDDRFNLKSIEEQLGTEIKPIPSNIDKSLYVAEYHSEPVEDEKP

**Q.** R232G was tested. Which “effect of a mutation on the interaction” value did it give?
**A.** with no effect

Variants of: B5
Conditions: with leng1_human LENG1, Q96BZ8

**Q.** For P348S, which “effect of a mutation on the interaction” value is on record?
**A.** with no effect

From IntAct's records for PubMed 31515488
